B1: GTPBP6 -24T (rs1393008234 minor) (dsDNA)
DNA 1: ATCACGAGCACGTTATGAGGAGCGGC
DNA 2: GCCGCTCCTCATAACGTGCTCGTGAT
B2: ZFY -56C (WT) (dsDNA)
DNA 1: GGCGGAGGGGGCCCAACTACCATCCC
DNA 2: GGGATGGTAGTTGGGCCCCCTCCGCC
B3: ASMT -30G (rs1402972626 WT) (dsDNA)
DNA 1: GGTGACCTTTTGTGCCCAGAATAGGT
DNA 2: ACCTATTCTGGGCACAAAAGGTCACC
B4: CDY2A -24 WT (printed -24G, sequence has T) (dsDNA)
DNA 1: AGAATGTTCCATATAATCGTCATAGC
DNA 2: GCTATGACGATTATATGGAACATTCT
B5: CDY2A -24 minor (printed -24t, sequence has C) (dsDNA)
DNA 1: AGAATGTTCCATACAATCGTCATAGC
DNA 2: GCTATGACGATTGTATGGAACATTCT
B6: ASMT -30A (rs1402972626 minor) (dsDNA)
DNA 1: GGTGACCTTTTGTACCCAGAATAGGT
DNA 2: ACCTATTCTGGGTACAAAAGGTCACC
B7: GTPBP6 -24G (rs1393008234 WT) (dsDNA)
DNA 1: ATCACGAGCACGTGATGAGGAGCGGC
DNA 2: GCCGCTCCTCATCACGTGCTCGTGAT
B8: ZFY -56T (minor) (dsDNA)
DNA 1: GGCGGAGGGGGCCTAACTACCATCCC
DNA 2: GGGATGGTAGTTAGGCCCCCTCCGCC
B9: SHOX -45G (rs1452787381 minor) (dsDNA)
DNA 1: GAGGTCGCCGCGTGTAAATAGTGAGA
DNA 2: TCTCACTATTTACACGCGGCGACCTC
B10: SHOX -45A (rs1452787381 WT) (dsDNA)
DNA 1: GAGGTCGCCGCGTATAAATAGTGAGA
DNA 2: TCTCACTATTTATACGCGGCGACCTC

Target: TBP (Homo sapiens) (UniProt P20226)
Experiment: not given
Settings: cited from earlier work

For TBP (from UniProt P20226), the Kd is given as 4 nM.

Target: T1, TBP (TATA-binding protein) (human, UniProt P20226 1-339)
T1 sequence (P20226 whole entry): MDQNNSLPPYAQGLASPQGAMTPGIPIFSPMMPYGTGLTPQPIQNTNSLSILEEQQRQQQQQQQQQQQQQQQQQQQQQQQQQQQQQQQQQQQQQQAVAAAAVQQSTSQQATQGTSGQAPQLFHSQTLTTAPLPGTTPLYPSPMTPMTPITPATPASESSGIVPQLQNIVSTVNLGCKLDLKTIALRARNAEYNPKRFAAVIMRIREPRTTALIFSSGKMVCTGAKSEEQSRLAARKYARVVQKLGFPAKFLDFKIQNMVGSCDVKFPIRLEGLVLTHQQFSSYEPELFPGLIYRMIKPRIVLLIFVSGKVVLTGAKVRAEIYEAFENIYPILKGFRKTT
Experiment: EMSA; 2 nM TBP; EMSA with 2 nM TBP and varied ODN concentrations; Kd from reaction rates vs ODN concentration (GraphPad Prism 5); buffer, salt, pH and temperature not given in
Settings: protein: recombinant; blunt

B1 and B2 are within error of each other in Kd: 1400 ± 200 nM for the first, 1000 ± 400 nM for the second.

Going from B3 to B4, the Kd falls from 600 ± 300 nM to 160 ± 30 nM (3.8-fold).

B5 and B6 are within error of each other in Kd: 500 ± 200 nM for the first, 1000 ± 300 nM for the second.

B7 and B8 are within error of each other in Kd: 1500 ± 200 nM for the first, 2000 ± 1000 nM for the second.

Target: T1, TBP (TATA-binding protein)
Experiment: EMSA; 2 nM TBP; Kd from association kinetics; EMSA with 2 nM TBP and varied ODN concentrations; Kd from reaction rates vs ODN concentration (GraphPad Prism 5); buffer, salt, pH and temperature not given in
Settings: protein: recombinant; blunt

First: B9
Second: B10
The Kd of the first is 6.7-fold higher: 260 ± 70 nM for the first, 39 ± 7 nM for the second. The second binds more tightly here.
